This is an account of results in patent publication US20240390531A1 (IMAGINAB, published 2024).

Substitutions are numbered along the chain they refer to.

Sequences and labels used below:
B1: IAB16C4-19 (other)
chain: EVQLLESGGGLVQPGGSLRLSCAASGFTFSSYAMSWVRQAPGKGLEWVSAIIGSGASTYYADSVKGRFTISRDNSKNTLYLQMNSLRAEDTAVYYCAKGWFGGFNYWGQGTLVTVSSGGGSGGGGEIVLTQSPGTLSLSPGERATLSCRASQSVTSSYLAWYQQKPGQAPRLLINVGSRRATGIPDRFSGSGSGTDFTLTISRLEPEDFAVYYCQQGIMLPPTFGQGTKVEIKGGCPPCPPC
notes: also called IAB164-19
B2: IAB16C1-24 (other)
chain: EIVLTQSPGTLSLSPGERATLSCRASQSVSRSYLAWYQQKPGQAPRLLIIGASTRATGIPDRFSGSGSGTDFTLTISRLEPEDFAVYYCQQGQVIPPTFGQGTKVEIKSGGGGEVQLLESGGGLVQPGGSLRLSCAASGFTFSSHAMSWVRQAPGKGLEWVSAIWASGEQYYADSVKGRFTISRDNSKNTLYLQMNSLRAEDTAVYYCAKGWLGNFDYWGQGTLVTVSSGGCPPCPPC
B3: IAB16C2-18 (other)
chain: EVQLLESGGGLVQPGGSLRLSCAASGFTFSSYAMSWVRQAPGKGLEWVSAIIGSGASTYYADSVKGRFTISRDNSKNTLYLQMNSLRAEDTAVYYCAKGWFGGFNYWGQGTLVTVSSSGGGGEIVLTQSPGTLSLSPGERATLSCRASQSVTSSYLAWYQQKPGQAPRLLINVGSRRATGIPDRFSGSGSGTDFTLTISRLEPEDFAVYYCQQGIMLPPTFGQGTKVEIKGGCPPCPPC
B4: IAB16C2-16 (other)
chain: QVQLVQSGAEVKKPGASVKVSCKTSRYTFTEYTIHWVRQAPGQRLEWIGGINPNNGIPNYNQKFKGRVTITVDTSASTAYMELSSLRSEDTAVYYCARRRIAYGYDEGHAMDYWGQGTLVTVSSSGGGGDIVMTQSPDSLAVSLGERATINCKSSQSLLYSRNQKNYLAWYQQKPGQPPKLLIFWASTRESGVPDRFSGSGFGTDFTLTISSLQAEDVAVYYCQQYFSYPLTFGQGTKVEIKGGCPPCPPC
B5: IAB16C4-17 (other)
chain: QVQLVQSGAEVKKPGASVKVSCKTSRYTFTEYTIHWVRQAPGQRLEWIGGINPNNGIPNYNQKFKGRVTITVDTSASTAYMELSSLRSEDTAVYYCARRRIAYGYDEGHAMDYWGQGTLVTVSSGGGSGGGGDIVMTQSPDSLAVSLGERATINCKSSQSLLYSRNQKNYLAWYQQKPGQPPKLLIFWASTRESGVPDRFSGSGFGTDFTLTISSLQAEDVAVYYCQQYFSYPLTFGQGTKVEIKGGCPPCPPC
B6: IAB16C2-25 (other)
chain: EVQLLESGGGLVQPGGSLRLSCAASGFTFSSHAMSWVRQAPGKGLEWVSAIWASGEQYYADSVKGRFTISRDNSKNTLYLQMNSLRAEDTAVYYCAKGWLGNFDYWGQGTLVTVSSSGGGGEIVLTQSPGTLSLSPGERATLSCRASQSVSRSYLAWYQQKPGQAPRLLIIGASTRATGIPDRFSGSGSGTDFTLTISRLEPEDFAVYYCQQGQVIPPTFGQGTKVEIKGGCPPCPPC
B7: IAB16C4-27 (other)
chain: EVQLLESGGGLVQPGGSLRLSCAASGFTFSSHAMSWVRQAPGKGLEWVSAIWASGEQYYADSVKGRFTISRDNSKNTLYLQMNSLRAEDTAVYYCAKGWLGNFDYWGQGTLVTVSSGGGSGGGGEIVLTQSPGTLSLSPGERATLSCRASQSVSRSYLAWYQQKPGQAPRLLIIGASTRATGIPDRFSGSGSGTDFTLTISRLEPEDFAVYYCQQGQVIPPTFGQGTKVEIKGGCPPCPPC
B8: IAB16M1-10 (other)
chain: EIVLTQSPGTLSLSPGERATLSCRASQSVSRSYLAWYQQKPGQAPRLLIIGASTRATGIPDRFSGSGSGTDFTLTISRLEPEDFAVYYCQQGQVIPPTFGQGTKVEIKGSTSGGGSGGGSGGGGSSEVQLLESGGGLVQPGGSLRLSCAASGFTFSSHAMSWVRQAPGKGLEWVSAIWASGEQYYADSVKGRFTISRDNSKNTLYLQMNSLRAEDTAVYYCAKGWLGNFDYWGQGTLVTVSSEPKSSDKTHTCPPCPPCGGGSSGGGSGGQPREPQVYTLPPSREEMTKNQVSLTCLVKGFYPSDIAVEWESNGQPENNYKTTPPVLDSDGSFFLYSKLTVDKSRWQQGNVFSCSVMHEALHNHYTQKSLSLSPG
B9: IAB16M2-13 (other)
chain: QVQLVQSGAEVKKPGASVKVSCKTSRYTFTEYTIHWVRQAPGQRLEWIGGINPNNGIPNYNQKFKGRVTITVDTSASTAYMELSSLRSEDTAVYYCARRRIAYGYDEGHAMDYWGQGTLVTVSSGSTSGGGSGGGSGGGGSSDIVMTQSPDSLAVSLGERATINCKSSQSLLYSRNQKNYLAWYQQKPGQPPKLLIFWASTRESGVPDRFSGSGFGTDFTLTISSLQAEDVAVYYCQQYFSYPLTFGQGTKVEIKEPKSSDKTHTCPPCPPCGGGSSGGGSGGQPREPQVYTLPPSREEMTKNQVSLTCLVKGFYPSDIAVEWESNGQPENNYKTTPPVLDSDGSFFLYSKLTVDKSRWQQGNVFSCSVMHEALHNHYTQKSLSLSPG
notes: also called Sibrotuzumab minibody
B10: IAB16M2-31 (other)
chain: B9 chain with T24A, R26G, F215S, V231F, F240Y
B11: IAB16M2-33 (other)
chain: B9 chain with S225R, Q227E, A228P, V231F
B12: IAB16M1-30 (other)
chain: DIVMTQSPDSLAVSLGERATINCKSSQSLLYSRNQKNYLAWYQQKPGQPPKLLIFWASTRESGVPDRFSGSGSGTDFTLTISSLQAEDFAVYYCQQYYSYPLTFGQGTKVEIKGSTSGGGSGGGSGGGGSSQVQLVQSGAEVKKPGASVKVSCKASGYTFTEYTIHWVRQAPGQRLEWIGGINPNNGIPNYNQKFKGRVTITVDTSASTAYMELSSLRSEDTAVYYCARRRIAYGYDEGHAMDYWGQGTLVTVSSEPKSSDKTHTCPPCPPCGGGSSGGGSGGQPREPQVYTLPPSREEMTKNQVSLTCLVKGFYPSDIAVEWESNGQPENNYKTTPPVLDSDGSFFLYSKLTVDKSRWQQGNVFSCSVMHEALHNHYTQKSLSLSPG
B13: IAB16M1-32 (other)
chain: B12 chain with S73F, S83R, Q85E, A86P, Y98F, A155T, G157R
B14: IAB16M1-36 (other)
chain: B12 chain with S83R, Q85E, A86P

The first test concerns the target T1, purified human FAP antigen (human, UniProt Q12884 26-760, limits assumed). The test is described as follows: ELISA, plate coated with purified human FAP antigen (FIG. 56F-56G). How it is done: (§1) Binding kinetics of the novel antigen binding constructs to a purified human FAP antigen was assessed using ELISA. For this assay, a 96 well ELISA plate was coated with the human-FAP antigen diluted to a concentration of 2 mg/mL in coating buffer (0.05M sodium carbonate-bicarbonate buffer, pH 9.6). 100 μl of this coating solution was added to each well in the plate and incubate at 4° C. overnight. The plate was washed 3 times with 300 μl per well of washing buffer (PBS with 0.05% Tween-20). After the last wash, the plate was blocked by adding to each well 200 μl of blocking buffer (PBS with 1% BSA) warmed to room temperature. The plate was then incubated at room temperature for 1 hour under gentle agitation. After blocking, the plate was washed 3 times with 300 μl per well of washing buffer. Dilution samples for each minibody were created by making 2.5× dilutions from a starting sample at 100 ng/mL, or 250 ng/mL, or 1000 ng/mL or 3000 ng/mL in 100 μL sample buffer (PBS with 1% BSA). The dilution samples were transferred to the assay plate and incubated at room temperature for 1 hour under gentle agitation. The plate was then washed 3 times with 300 μl per well of washing buffer.
(§2) Detection was performed by adding 100 μl of HRP labeled detection secondary antibody at an appropriate dilution and incubating the plate at room temperature for 1 hour under gentle agitation. The plate was then washed 3 times with 300 μl per well of washing buffer. For color development, 100 μl of TMB substrate regent, pre-warmed to room temperature, was added to the plate and incubated in the dark at room temperature for 15 min. The reaction was then stopped by adding 100 μl of 650 nm stop solution to the plate and mixed for 1 min at room temperature under gentle agitation. The plate is recorded by reading OD at 650 nm in a plate reader within 20 min after terminating the reaction.
(In an ELISA, binding on a coated surface is turned into a signal by an enzyme label.)
Usually Kd stands for the free concentration of one partner at which half of the binding sites on the other are occupied at equilibrium, for simple one-to-one binding. Lower therefore signals higher affinity. With B1, the Kd was approximately 1 nM.
B2: the Kd was approximately 1 nM.
Consider B3, for which the Kd was approximately 1 nM.
For the molecule B4, the dissociation constant (Kd) was approximately 1 nM.
For the molecule B5, the Kd was approximately 1 nM.
On the same count and under the same terms, next, B6: approximately 1 nM; B7: approximately 1 nM.

The next test concerns the target T2, human FAP on cells (human, UniProt Q12884 1-760).
T2 construct: whole, on cells; The cell line is named under assay; also called HT1080 human FAP cells; HT1080-hFAP cells
The test is described as follows: flow cytometry on U87-MG glioblastoma cells (FIG. 58B). How it is done:
As disclosed herein, the binding of constructs to cellular targets was assessed using flow cytometry. Stock of 2.5× serial dilution of minibodies were created starting from a concentration of 100 nM in […] FACS buffer (PBS 2% FBS). Cells were added to a Corning V-bottom polypropylene cell culture plate at 200,000 cells/well. The cells were centrifuged at 100 rpm for 3 minutes and the supernatant discarded. The minibody dilution series were transferred to the plate containing cell pellets and incubated for 1 hr at 4° C. The plate was then washed 3 times with FACS buffer at 200 µl/well, discarding supernatant after each wash by centrifugation at 1000 rpm. 50 µl/well of detection antibody R&D AlexaFluor-647 Goat anti Human (H+L) was added at a 1:100 dilution in FACS buffer and incubated at 4° C. 1 hr. The plate was washed 3 times with FACS buffer at 200 µl/well, discarding supernatant after each wash by centrifuging at 1000 rpm. Cells were then fixed by adding 100 µl of 1% paraformaldehyde in PBS and incubating at room temperature for 15 minutes. 100 µl of PBS were added to each well and the plate was analyzed by flow cytometry using the allophycocyanin fluorescence setting.
For the molecule B8, the Kd was approximately 0.1 nM.
Take B9: the Kd is approximately 0.1 nM.

The target in a further test is T1, purified human FAP antigen. The test is described as follows: ELISA, plate coated with purified human FAP antigen (FIG. 56A-56C). How it is done: as §1, §2
B8 yielded a dissociation constant Kd of approximately 0.1 nM.
Still for that read-out and setting: to B9 belongs approximately 0.1 nM; to B10, approximately 0.1 nM; to B11, approximately 0.1 nM.
B12 yielded a dissociation constant Kd of approximately 0.1 nM.
The molecule B13 displayed a Kd of approximately 0.1 nM.
B14 showed a dissociation constant Kd of approximately 0.1 nM.
